Data reported in US20070036750A1.

Tests used:
[1] = target: human CCR2 (full-length, Genbank Accession No. NM-000648) on membranes of Ba/F3-hCCR2 cells (human) (UniProt P41597); experiment: competition with 30 pM radioiodinated human MCP1, SPA, Ba/F3-hCCR2 cell membranes
[2] = target: human CCR2 (full-length, Genbank Accession No. NM-000648) on membranes of Ba/F3-hCCR2 cells (human) (UniProt P41597); experiment: competition with radioiodinated human MCP1, SPA, membranes of cells containing CCR2

Substance | IC50 [1] | Ki [1] | fold less potent than unlabeled rhMCP1 [2]
Recombinant human MCP1 (rhMCP1) (R & D Systems) (from UniProt P13500 24-99) (ligand) | 0.183 nM | 0.0845 nM | –
hMCP1-mIg (NH2-human MCP1-Mouse Ig Heavy chain γ1 (hinge-CH2-CH3)-COOH) (Fc fusion) | 0.624 nM | 0.287 nM | 5 to 12 fold
